From US12522635B2, “Amyloid peptide variants” (Loyola Marymount University, priority 2019, dated 2026)
Where no end group is shown, it is not given here.

Columns and labels:
[1] = target: T1, human IAPP (hIAPP) (Homo sapiens, UniProt P10997); experiment: Thioflavin T binding assay of hIAPP aggregation when mixed with IAPP peptides; type: biochemical; details: for inhibition of hIAPP aggregation, thioflavin T binding: hIAPP mixed with peptide, incubated at 37° C. with shaking; for inhibition of hIAPP aggregation (summary statement): peptide mixed with hIAPP, no single assay (thioflavin T and AFM)
T1 construct: This 37 amino acid polypeptide is co-secreted from pancreatic β-islet cells with insulin
T1 sequence (P10997 34-70 limits assumed): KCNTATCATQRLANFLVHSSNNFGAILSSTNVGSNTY
From the text: Any of a number of assays known to the art can be used to evaluate the ability of IAPP peptides to inhibit hIAPP aggregation and/or protect cells from hIAPP toxicity. Thioflavin T (ThT) binding is one such technique for identifying amyloid formation in real time. Human IAPP is known to bind thioflavin T during aggregation and amyloid formation, and upon binding to amyloid fibrils ThT will give a strong fluorescence signal at approximately 482 nm when excited at 450 nm. ThT fluorescence correlates linearly with amyloid concentration in a sample and therefore can be used to determine the amount of aggregation in a sample. This technique can therefore be used for identifying substances with amyloid-inhibiting potential when such substances are mixed with human IAPP under conditions known to result in the formation of aggregates by hIAPP. Determining the extent of aggregation can also be determined using other techniques, such as Atomic Force Microscopy (AFM), which can provide information about particle dimensions, shape, and substructure with nanometer resolution. In the foregoing assays and others that can be used by one of skill in the art, significant inhibition can be determined using a t-test by measuring the difference between hIAPP and hIAPP combined with an IAPP peptide.
To identify IAPP peptides having inhibitory potential against hIAPP aggregation, the peptides shown in FIG. 1 from a number of species (cow, degu, guinea pig, horse, pig, rat, and sheep[…]) were mixed with hIAPP at a 2:1 molar ratio of animal peptide to hIAPP and incubated under conditions known to promote hIAPP aggregation and fibril formation. IAPP alone, or hIAPP mixed with an animal IAPP, was pipetted into a glass tube and the HFIP was removed under speed-vacuum. The resulting peptide sample was dissolved in 20 mM Tris buffer pH 7.4.
37 μM human IAPP was mixed with 75 μM of each indicated animal IAPP. Aggregation was initiated by incubating samples at 37° C. with shaking at 200 rpm for 40 minutes. At indicated time points, a 17 μL aliquot of each sample was mixed with 663 μL of 50.0 μM thioflavin T in 20 mM Tris buffer (pH 7.4). Thioflavin T fluorescence emission was then recorded at 488 nm using a Hitachi F-7000 fluorescence spectrophotometer.
After 40 minutes, these samples were monitored for their ability to bind thioflavin T (see FIG. 2) and their ability to form fibrils as identified with atomic force microscopy.
Human IAPP (37 μM) was mixed with each of the indicated Weddell seal variants (at 75 μM) and incubated for 30 minutes at 37° C. with shaking at 200 rpm. The Weddell seal IAPP peptides were likewise subjected to atomic force microscopy as described in Example 2.
Human IAPP was mixed with each of the indicated raccoon variants and incubated at 37° C. with shaking.
Human IAPP was mixed with each of the indicated chicken variants and incubated at 37° C. with shaking. […] However, it was able to protect cells in MTT assays, so it is believed to inhibit formation of toxic oligomers while having a lesser effect on inhibiting the formation of fibers (which are less toxic and less able to bind ThT).
Human IAPP was mixed with each of the indicated chicken variants and incubated at 37° C. with shaking.

[2] = system: RIN-m cells; experiment: MTT viability assay, peptide alone or mixed with hIAPP; type: cell-based; details: hIAPP mixed with peptide 1:1, MTT assay
From the text: Cytoprotection can likewise be measured by a number of assays known to the art. One such assay is the MTT assay, which is a colorimetric assay for assessing cell metabolic activity. NAD(P)H-dependent cellular oxidoreductase enzymes in the cytosolic compartment of a cell reduces the tetrazolium dye MTT 3-(4,5-dimethylthiazol-2-yl)-2,5-diphenyltetrazolium bromide to an insoluble form, formazan, which has a purple color. The reduction of MTT (and other tetrazolium dyes) depends on the cellular metabolic activity, so a loss of color in the course of performing an MTT assay indicates low metabolic activity, and is thus an indicator of cell damage and death.
To test cell viability, a MTT colorimetric assay measuring the conversion of yellow tetrazolium salt into purple formazan crystal catalyzed by a mitochondrial reductase was used. Cell viability studies were performed using RIN-m cells (ATCC, CRL-2057). An equal number of RIN-m cells were plated in triplicate and incubated overnight in 96-well plates. The next day, fresh RPMI-1640 with phenol red supplemented with 10% FBS was added to cells. Hexafluoroisopropanol (HFIP) was removed from each individual human and animal IAPP using a centrivap concentrator (LabOnco). All IAPP peptide samples were re-suspended in RPMI-1640 with 10% FBS. To ensure even re-suspension, each resulting IAPP-containing vial was scraped with a pipette tip six times and vortexed (Vortex Genie Mixer) for 15 seconds. The whole process, from drying each IAPP peptide to adding each IAPP peptide to the cells was uniform to ensure that each sample was incubated for an equal amount of time with each IAPP peptide. IAPP peptides were added to cells and incubated for 46 hours at 37° C. Post-incubation, the media in each well was replaced by fresh DMEM/F-12 without phenol red. MTT (3-(4,5-dimethyl-2-thiazolyl)-2,5-diphenyl-tetrazolium bromide) was added into each well and incubated at 37° C. for 2 hours. Formazan crystals, formed on the bottom of the wells, were re-suspended in solubilization buffer (20% SDS and 50% dimethylformamide). The absorbance in each well was taken at 570 nm using a Multiskan FC Microplate Photometer (Thermos Fisher Scientific). Media were obtained from ATCC. All incubations took place in a water jacketed incubator in 5% carbon dioxide at 37° C. (Shell Lab).
The MTT viability assay was used to measure cell viability of RIN-m cells upon addition of hIAPP alone, the addition of each animal IAPP peptide alone, and hIAPP mixed with each animal IAPP peptide (results shown in FIG. 5). RIN-m cells alone were used as a control and set to 100% cell viability. […] Addition of raccoon IAPP to hIAPP increased the cell viability from 55% to an average of 72% (p=0.005705). Addition of chicken IAPP variant to hIAPP increased cell viability to an average of 76% (p=0.013556).

[3] = target: T1, human IAPP (hIAPP); experiment: Atomic force microscopy (AFM) of hIAPP fibril formation when mixed with IAPP peptides; type: biochemical; details: 37 μM hIAPP and 75 μM peptide, 37° C. with shaking for 40 minutes
Procedure: Samples labeled with hIAPP contained 40 μM hIAPP. The sample with pramlintide and hIAPP contained a 2:1 molar mixture (80 μM Pramlintide mixed with 40 μM hIAPP). The samples with raccoon IAPP and Pramlintide alone contained 40 μM of the indicated peptides. Each sample was incubated for 40 minutes at 37° C. with shaking; conditions known to promote hIAPP amyloid formation. All scans show raw data with no flattening and are […].
Each sample contained 37 μM hIAPP and 75 μM of the indicated peptide. Samples were incubated at 37° C. with shaking for 40 minutes. All scans show raw data with no flattening and are […].
Each sample contained 37 μM hIAPP mixed with 37 μM of the indicated peptide. Samples were incubated at 37° C. with shaking for 30 minutes before depositing each sample onto freshly cleaved mica.
Samples of hIAPP with or without animal IAPP were prepared as described in Example 1 and were then incubated with shaking at 37° C. for 40 minutes. After this incubation, 17 μL of each sample was deposited onto freshly cleaved mica. Samples were incubated for 5 minutes at room temperature before washing with 200 μL sterile water. After drying, the samples were scanned using an MFP-3D atomic force microscope (Asylum Research) set on A/C mode and a 240 m silicon cantilever (Olympus).
Many of the animal IAPP variants are known to likewise form fibrils and yield amyloid-plaques when scanned via AFM. […] This is in spite of the fact that all of these IAPP peptides (except polar bear IAPP) are known to aggregate and form fibrils themselves under these or similar conditions

Substance | inhibition of hIAPP aggregation, thioflavin T binding [1] | rescue / protection of cells from hIAPP toxicity (words) [2] | inhibition of hIAPP fibril formation, AFM [3] | inhibition of hIAPP aggregation (summary statement) [1]
KCNTATCATQRLANFLLRSSNNLGAILSPTNVGSNTY (Procyon lotor mutation) [Rac_V8A] | inhibited hIAPP aggregation | – | – | –
KCNTATCATQRLANFLVRSSNNFGAILSPTNVGSNTY (KTATCATQRLANFLVHSSNNLGAILSPTNVGSNTY; Leptonychotes weddellii mutation) [WS_RP] | – | rescued cells from hIAPP toxicity | – | –
KCNTATCVTQRLADFLLRSSNNLGAILSPTNVGSNTY (Procyon lotor mutation) [Rac_N13D] | inhibited hIAPP aggregation | – | – | –
KCNTATCVTQRLADFLLRSSSNIGAIYSPTNVGSNTY (Gallus gallus mutation) [Ch_V16L] | inhibited hIAPP aggregation | rescued cells from hIAPP-induced cytotoxicity | – | –
KCNTATCVTQRLADFLVRSSSNIGAILSPTNVGSNTY (Gallus gallus mutation) [Ch_Y26L] | inhibited hIAPP aggregation | rescued cells from hIAPP-induced cytotoxicity | – | –
KCNTATCVTQRLANFLLRSSNNIGAILSPTNVGSNTY (Procyon lotor mutation) [Rac_L22I] | inhibited hIAPP aggregation | – | – | –
KCNTATCVTQRLANFLLRSSNNLGAILSPT (ends and bridges not checked; cysteine pairing not given here) [R1-30] | inhibited hIAPP aggregation | rescued cells from hIAPP-induced cytotoxicity | – | –
KCNTATCVTQRLANFLVRSSNNLGAILSPTNVGSNTY (Procyon lotor mutation) [Rac_L16V] | inhibited hIAPP aggregation | – | – | –
R1-23: truncated raccoon IAPP peptide of FIG. 19; sequence not printed in the text (KCNTATCVTQRLANFLLRSSNNL) | – | – | did not inhibit hIAPP aggregation | –
R8-23: truncated raccoon IAPP peptide of FIG. 19; sequence not printed in the text (VTQRLANFLLRSSNNL) | – | – | did not inhibit hIAPP aggregation | –
R8-30: truncated raccoon IAPP peptide of FIG. 19; sequence not printed in the text (VTQRLANFLLRSSNNLGAILSPT) | – | – | did not inhibit hIAPP aggregation | –
SEQ ID NO:21: raccoon IAPP peptide with amino acids removed from the N-terminal end (FLLRSSNNLGAILSPTNVGSNTY; Procyon lotor truncation) | – | failed to inhibit aggregation of hIAPP or reduce its cytotoxicity | – | failed to inhibit aggregation of hIAPP or reduce its cytotoxicity
SEQ ID NO:22: raccoon IAPP peptide with amino acids removed from the middle (FLLRSSNNLGAILSPTN; Procyon lotor truncation) | – | failed to inhibit aggregation of hIAPP or reduce its cytotoxicity | – | failed to inhibit aggregation of hIAPP or reduce its cytotoxicity
SEQ ID NO:23: raccoon IAPP peptide with amino acids removed from the N-terminal end (ATQRLANFLLRSSNNLGAILSPTNVGSNTY; Procyon lotor truncation) | – | failed to inhibit aggregation of hIAPP or reduce its cytotoxicity | – | failed to inhibit aggregation of hIAPP or reduce its cytotoxicity
SEQ ID NO:24: raccoon IAPP peptide with amino acids removed from the middle (VTQRLANFLLRSSNNLGAILSPT; Procyon lotor truncation) | – | failed to inhibit aggregation of hIAPP or reduce its cytotoxicity | – | failed to inhibit aggregation of hIAPP or reduce its cytotoxicity
SEQ ID NO:25: raccoon IAPP peptide with amino acids removed from the middle (VTQRLANFLLRSSNNL; Procyon lotor truncation) | – | failed to inhibit aggregation of hIAPP or reduce its cytotoxicity | – | failed to inhibit aggregation of hIAPP or reduce its cytotoxicity
